From the supplement of paper PMC10126150
± gives the standard deviation of the averaged measurements.

System: ATP
Test: switch fluorescence ratio, 500 uM ATP over buffer (Cy3 cluster intensity, sum of 5 cycles each) (fold (ratio)); higher = stronger signal-on switching upon ATP binding; sequences stand for … in TCGTCGGCAGCGTCAGATGTGTATAAGAGACAGTTTTTTTTTTTTTTTTTTTTTTTTT…TC
Conditions: aptamer strand: ATP DNA aptamer (quencher-CACCTGGGGGAGTATTGCGGAGGAAGG + anchor), 100 nM annealed; ATP concentration: 500 uM
Method in brief: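 Switching-strand clusters labelled with Cy3 on a modified Illumina MiSeq flow-cell were annealed to 100 nM quencher-labelled ATP aptamer, imaged in selection buffer, and re-imaged after 15 min with 500 uM ATP at 22 °C. This was done over five cycles with NaOH stripping and re-annealing in between. The fluorescence ratio is summed target-cycle over summed buffer-cycle Cy3 intensity per cluster, averaged per switch-domain sequence, excluding clusters outside 100-1000 RFU.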
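Further: ATP exposure 15 min at 22 °C before imaging.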

Sequence	switch fluorescence ratio
TGCTGGGATT	1.02 ± 0.044
TGCTGGGCTG	1.01 ± 0.025
TGCTGGGGAC	0.992 ± 0.051
TGCTGGGGGG	0.981 ± 0.023
TGCTGGGGTT	0.9764 ± 0.0047
TGCTGGTGTA	1.02 ± 0.025
TGCTGTACGA	1.11 ± 0.012
TGCTGTACGG	1.01 ± 0.046
TGCTGTGGGA	0.9689 ± 0.006
TGCTGTGTAC	1.084 ± 0.0095
TGCTGTTCTG	1.032 ± 0.0019
TGCTTAAGCA	0.982 ± 0.058
TGCTTAGGTT	0.988 ± 0.011
TGCTTATGGT	0.965 ± 0.029
TGCTTCGGGA	1.1288 ± 0.0008
TGCTTCGTGC	0.996 ± 0.012
TGCTTCTCCA	1.03 ± 0.036
TGCTTGAGGG	1.004 ± 0.0097
TGCTTTACAT	1.03 ± 0.014
TGCTTTACGG	1.009 ± 0.0082
TGCTTTTCCG	1.1 ± 0.07
TGCTTTTGGT	0.988 ± 0.022
TGGAAAAATT	1.03 ± 0.04

Sequence	switch fluorescence ratio
TGGAAAGAAG	1.02 ± 0.064
TGGAAGAGGC	1.47 ± 0.64
TGGAAGGGTA	0.9903 ± 0.0012
TGGAAGGTAT	0.9795 ± 0.0087
TGGAAGGTTG	0.9808 ± 0.0066
TGGAATGGTG	1.05 ± 0.015
TGGAATTAGT	0.986 ± 0.038
TGGACAGGGT	0.999 ± 0.017
TGGACATGGT	0.9856 ± 0.005
TGGACCAGTT	1.008 ± 0.0033
TGGACGAAGT	1.01 ± 0.023
TGGACGTGTC	1 ± 0.019
TGGACTATTA	1.015 ± 0.01
TGGACTTTTT	0.971 ± 0.057
TGGAGAAATA	1.01 ± 0.048
TGGAGATTAG	1.01 ± 0.054
TGGAGCGGTT	1.03 ± 0.032
TGGAGGAGAG	0.99 ± 0.018
TGGAGGGGCA	1.03 ± 0.022
TGGAGGGGGT	1.09 ± 0.28
TGGAGTAATT	1.06 ± 0.063
TGGAGTCGTG	0.9729 ± 0.0091
TGGATAAGAG	0.975 ± 0.019

Sequence	switch fluorescence ratio
TGGATATAGT	0.9937 ± 0.0038
TGGATATGGG	1.01 ± 0.028
TGGATCAAAT	0.9705 ± 0.0049
TGGATGAAGT	1 ± 0.047
TGGATGATTG	0.984 ± 0.022
TGGATGCATT	1.03 ± 0.015
TGGATGGGTA	1.22 ± 0.33
TGGATGTATG	0.99 ± 0.04
TGGATGTGGC	0.963 ± 0.031
TGGATTACGT	1.018 ± 0.0032
TGGATTGGAT	1.03 ± 0.035
TGGCAAAATT	1.01 ± 0.033
TGGCAAAGGA	0.989 ± 0.026
TGGCAAATGT	0.9818 ± 0.0049
TGGCAATATT	2.31 ± 1.6
TGGCACATAT	1.04 ± 0.054
TGGCATCTTT	1.02 ± 0.018
TGGCCATCCT	1.62 ± 0.82
TGGCCCGGGG	0.988 ± 0.031
TGGCCCTTTT	1.07 ± 0.13
TGGCCGGGTT	1.33 ± 0.4
TGGCCGTGCT	0.904 ± 0.071
TGGCCTAGTG	1.002 ± 0.0071

Sequence	switch fluorescence ratio
TGGCGAAGGA	1.018 ± 0.0019
TGGCGAGTCC	0.973 ± 0.015
TGGCGGCATG	1.01 ± 0.06
TGGCGGCTTT	1.01 ± 0.041
TGGCGGGGGG	0.994 ± 0.035
TGGCGGGGTA	1.02 ± 0.034
TGGCGGGGTC	0.9992 ± 0.0094
TGGCGGTATA	0.993 ± 0.012
TGGCGGTCGG	1 ± 0.048
TGGCGTGGGA	1 ± 0.035
TGGCGTTGGT	0.994 ± 0.056
TGGCTCAGTC	0.997 ± 0.044
TGGCTCCATT	1.01 ± 0.034
TGGCTGCAGA	0.972 ± 0.064
TGGCTGGTAA	0.991 ± 0.021
TGGCTTGGTA	1 ± 0.02
TGGCTTGTTT	0.99 ± 0.058
TGGGAAAGTT	0.988 ± 0.025
TGGGAACTCT	0.994 ± 0.012
TGGGAAGTTG	0.956 ± 0.04
TGGGAATAGG	0.993 ± 0.019
TGGGAATAGT	1 ± 0.049
TGGGAATGTT	1.01 ± 0.011

Sequence	switch fluorescence ratio
TGGGAATTAA	0.979 ± 0.04
TGGGAATTGT	1 ± 0.026
TGGGACCCTT	1.06 ± 0.023
TGGGACGACG	0.991 ± 0.022
TGGGACTGTT	0.986 ± 0.028
TGGGAGAGGA	1.02 ± 0.049
TGGGAGAGTT	0.993 ± 0.023
TGGGAGATAT	1 ± 0.028
TGGGAGCATA	1.05 ± 0.022
TGGGAGCCCG	0.9853 ± 0.0034
TGGGAGCGGT	0.995 ± 0.007
TGGGAGGATG	1.01 ± 0.039
TGGGAGGGAA	0.995 ± 0.013
TGGGAGGGTA	0.982 ± 0.022
TGGGAGGTCG	1.09 ± 0.03
TGGGAGTCGG	1.01 ± 0.035
TGGGAGTGGT	1 ± 0.003
TGGGATACAG	0.982 ± 0.026
TGGGATACGT	1.55 ± 0.79
TGGGATCGTC	0.966 ± 0.042
TGGGATGAGT	1.007 ± 0.0081
TGGGATTGCG	1.04 ± 0.012
TGGGATTGGC	1.01 ± 0.11

Sequence	switch fluorescence ratio
TGGGATTTCA	0.979 ± 0.045
TGGGATTTTT	0.985 ± 0.031
TGGGCCGCTT	1.04 ± 0.028
TGGGCCGGTA	1.02 ± 0.031
TGGGCGATAG	1.02 ± 0.027
TGGGCGATAT	1.95 ± 1.1
TGGGCGCGGT	0.975 ± 0.018
TGGGCGGCTT	0.97 ± 0.011
TGGGCGGGAG	0.993 ± 0.039
TGGGCGGGAT	1 ± 0.039
TGGGCTGGCT	1 ± 0.023
TGGGCTTTGG	0.9992 ± 0.009
TGGGCTTTTT	0.982 ± 0.041
TGGGGAACAC	0.995 ± 0.043
TGGGGAACG	0.9595 ± 0.006
TGGGGAACGC	1.01 ± 0.034
TGGGGAAGAG	1.02 ± 0.027
TGGGGAAGGA	0.99 ± 0.018
TGGGGACAGC	0.949 ± 0.027
TGGGGACAGT	1 ± 0.017
TGGGGACTCC	0.997 ± 0.032
TGGGGACTGG	1.04 ± 0.088
TGGGGACTTA	1.012 ± 0.0089

Sequence	switch fluorescence ratio
TGGGGAGAAG	0.994 ± 0.013
TGGGGAGCAT	1.01 ± 0.044
TGGGGAGCTT	0.99 ± 0.023
TGGGGAGGAT	0.974 ± 0.023
TGGGGATTGC	1.02 ± 0.048
TGGGGCAACG	0.979 ± 0.034
TGGGGCCCTT	1.04 ± 0.02
TGGGGCGACG	0.994 ± 0.034
TGGGGCGGGA	1.02 ± 0.08
TGGGGCGGTT	0.979 ± 0.024
TGGGGCGTCG	1 ± 0.037
TGGGGCTAAG	1.01 ± 0.034
TGGGGCTATT	1.02 ± 0.045
TGGGGCTGTG	0.991 ± 0.014
TGGGGGAAAA	0.986 ± 0.01
TGGGGGACTT	0.99 ± 0.039
TGGGGGAGAT	1.04 ± 0.1
TGGGGGAGCC	1.03 ± 0.041
TGGGGGAGTA	0.952 ± 0.018
